These are literature values, as cited in PMC4194041.

The target of this data set is AP180 fragment with two D(L/I)(L/F) motifs (UniProt Q61548). Briefly: NMR.
UniProt Q61548, sequence (Q61548 623-680): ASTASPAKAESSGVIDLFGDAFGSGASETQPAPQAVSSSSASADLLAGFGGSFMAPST

“Clathrin heavy chain TD (from UniProt P11442)”: the Kd (usually the free concentration of one partner at which half of the binding sites on the other are occupied at equilibrium, for simple one-to-one binding) was 250 µM.
